# Experiments:
# AOS (CYP74A) = target: T1, AOS (CYP74A) (Arabidopsis thaliana, UniProt Q96242); test: cis-(+)-12-OPDA formation by free enzymes, HPLC / GC-MS; type: biochemical; conditions: free enzymes (SDS-dissociated, dialyzed complex), read-out coupled through AOC2; 10 min
# T1 construct: free enzyme from SDS-dissociated, dialyzed envelope complex; bacterially expressed C-terminal (His)6 AOS, imported into Arabidopsis chloroplasts (transit peptide cleaved)
# T1 sequence (Q96242 34-518): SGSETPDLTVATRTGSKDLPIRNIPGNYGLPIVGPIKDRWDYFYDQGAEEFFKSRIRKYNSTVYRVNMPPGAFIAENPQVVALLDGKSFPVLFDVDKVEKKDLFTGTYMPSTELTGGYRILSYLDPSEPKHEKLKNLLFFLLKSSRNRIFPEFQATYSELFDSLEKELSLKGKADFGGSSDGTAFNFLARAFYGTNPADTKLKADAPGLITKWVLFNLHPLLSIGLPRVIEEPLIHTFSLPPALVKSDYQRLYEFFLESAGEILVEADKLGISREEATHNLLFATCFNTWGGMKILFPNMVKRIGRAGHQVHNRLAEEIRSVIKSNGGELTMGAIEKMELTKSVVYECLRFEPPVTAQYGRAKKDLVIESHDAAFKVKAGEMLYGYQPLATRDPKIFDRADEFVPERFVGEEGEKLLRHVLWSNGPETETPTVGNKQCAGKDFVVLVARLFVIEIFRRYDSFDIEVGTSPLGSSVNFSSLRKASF
# [1] = target: LOX2-AOS-AOC2 plastid envelope complex (Arabidopsis thaliana, UniProt P38418); conditions: intact complex, coupled LOX2-AOS-AOC2 turnover; α-LeA is the LOX2 substrate
# [2] = target: T2, C-terminal, (His)6-tagged allene oxide synthase [AOS-(His)6] (A. thaliana, UniProt Q96242 34-518); test: cell-based or functional assay
# T2 sequence (looked up): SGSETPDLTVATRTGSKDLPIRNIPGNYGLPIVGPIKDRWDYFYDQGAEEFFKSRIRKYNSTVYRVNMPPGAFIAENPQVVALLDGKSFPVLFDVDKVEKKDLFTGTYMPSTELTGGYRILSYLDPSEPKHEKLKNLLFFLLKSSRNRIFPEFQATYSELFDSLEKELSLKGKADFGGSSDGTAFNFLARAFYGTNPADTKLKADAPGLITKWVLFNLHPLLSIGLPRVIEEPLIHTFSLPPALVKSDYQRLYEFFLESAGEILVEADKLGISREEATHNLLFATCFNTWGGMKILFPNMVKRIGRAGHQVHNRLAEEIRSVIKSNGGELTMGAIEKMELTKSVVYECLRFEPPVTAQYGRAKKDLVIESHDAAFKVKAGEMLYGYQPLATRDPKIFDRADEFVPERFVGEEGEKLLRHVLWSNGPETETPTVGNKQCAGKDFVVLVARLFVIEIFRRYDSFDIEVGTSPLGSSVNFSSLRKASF
# [3] = target: the molecule itself; test: SDS-PAGE with protein sequencing; bands of the proteins co-purified with AOS-(His)6 in peak I; ~72 kDa and ~24 kDa bands both sequenced as AOC2
# [4] = target: T2, C-terminal, (His)6-tagged allene oxide …; test: pull-down; purified (His)6-tagged bait imported into isolated Arabidopsis chloroplasts (2.5 mM Mg-ATP); mixed envelopes solubilised with 1.3% decyl maltoside; Ni-NTA affinity chromatography, size exclusion on Superose 6 (peak I, ~250 kDa); co-purified bands identified by SDS-PAGE with protein sequencing, LOX2 also by western blot; conditions: one partner purified
# [5] = target: T3, soluble, catalytically active AOS used for reconstitution of the complex (A. thaliana, UniProt Q96242 34-518); test: reconstitution of the complex in vitro; complex reconstituted from soluble, catalytically active LOX2, AOS and AOC2 and isolated plastid envelope lipids (Supplementary Fig. S8)
# T3 construct: allene oxide synthase (AOS, CYP74A), A. thaliana
# T3 sequence: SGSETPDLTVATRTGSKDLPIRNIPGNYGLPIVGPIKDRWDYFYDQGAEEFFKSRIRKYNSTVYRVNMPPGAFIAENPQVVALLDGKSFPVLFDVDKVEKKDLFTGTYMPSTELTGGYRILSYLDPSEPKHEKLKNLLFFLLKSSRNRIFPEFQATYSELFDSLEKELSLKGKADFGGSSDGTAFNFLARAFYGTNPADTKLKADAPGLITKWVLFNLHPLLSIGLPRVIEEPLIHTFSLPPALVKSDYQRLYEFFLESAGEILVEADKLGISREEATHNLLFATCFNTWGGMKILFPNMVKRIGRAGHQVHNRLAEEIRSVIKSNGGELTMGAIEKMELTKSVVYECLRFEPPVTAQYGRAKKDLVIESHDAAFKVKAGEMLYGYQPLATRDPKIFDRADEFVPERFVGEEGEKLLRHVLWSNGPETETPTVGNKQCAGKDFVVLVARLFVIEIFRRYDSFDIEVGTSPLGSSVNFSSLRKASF
Molecule,rate of cis-(+)-12-OPDA formation from α-LeA by the intact LOX2-AOS-AOC2 envelope complex against the free-enzyme assay (complex dissociated with SDS and dialysed) [2] [fold],stoichiometry N [4],stoichiometry N [5],further results
"CC/C=C\C[C@@H](/C=C/C=C\CCCCCCCC(=O)O)OO [13-HPOT, (9Z11E15Z13S)-13-hydroperoxy-9,11,15-octadecatrienoic acid]",,,,"cis-(+)-12-OPDA formation by free enzymes, HPLC / GC-MS (AOS (CYP74A)): but it was accepted in the free-enzyme assay (Fig. 5C)"
CC/C=C\C/C=C\C/C=C\CCCCCCCC(=O)O [α-linolenic acid],,,,"cis-(+)-12-OPDA formation by isolated complex, HPLC / GC-MS [1]: α-LeA was converted to cis-(+)-12-OPDA by the isolated, intact (non-SDS-dissociated) plastid envelope complex"
"allene oxide cyclase 2 (AOC2), endogenous in the envelope of Arabidopsis chloroplasts (enzyme, UniProt Q9LS02 78-253, looked up, allene oxide cyclase 2 (AOC2), A. thaliana, ~72 kDa (SDS-resistant trimer) and ~24 kDa (monomer) bands of the plastid envelope; Found both as trimer and as monomer; source: endogenous, envelopes of isolated Arabidopsis chloroplasts) PSKVQELSVYEINELDRHSPKILKNAFSLMFGLGDLVPFTNKLYTGDLKKRVGITAGLCVVIEHVPEKKGERFEATYSFYFGDYGHLSVQGPYLTYEDSFLAITGGAGIFEGAYGQVKLQQLVYPTKLFYTFYLKGLANDLPLELTGTPVPPSKDIEPAPEAKALEPSGVISNYTN",120,4,,stoichiometry N [3]: 3
"soluble, catalytically active AOC2 used for reconstitution of the complex (enzyme, A. thaliana, allene oxide cyclase 2 (AOC2), A. thaliana) PSKVQELSVYEINELDRHSPKILKNAFSLMFGLGDLVPFTNKLYTGDLKKRVGITAGLCVVIEHVPEKKGERFEATYSFYFGDYGHLSVQGPYLTYEDSFLAITGGAGIFEGAYGQVKLQQLVYPTKLFYTFYLKGLANDLPLELTGTPVPPSKDIEPAPEAKALEPSGVISNYTN",,,4,
"lipoxygenase 2 (LOX2), endogenous in the envelope of Arabidopsis chloroplasts (enzyme, UniProt P38418 57-896, looked up, lipoxygenase 2 (LOX2), A. thaliana, ~100 kDa band of the plastid envelope; also called 13-lipoxygenase; source: endogenous, envelopes of isolated Arabidopsis chloroplasts) ANIEQEGNTVKEPIQNIKVKGYITAQEEFLEGITWSRGLDDIADIRGRSLLVELISAKTDQRITVEDYAQRVWAEAPDEKYECEFEMPEDFGPVGAIKIQNQYHRQLFLKGVELKLPGGSITFTCESWVAPKSVDPTKRIFFSDKSYLPSQTPEPLKKYRKEELETLQGKNREEVGEFTKFERIYDYDVYNDVGDPDNDPELARPVIGGLTHPYPRRCKTGRKPCETDPSSEQRYGGEFYVPRDEEFSTAKGTSFTGKAVLAALPSIFPQIESVLLSPQEPFPHFKAIQNLFEEGIQLPKDAGLLPLLPRIIKALGEAQDDILQFDAPVLINRDRFSWLRDDEFARQTLAGLNPYSIQLVEEWPLISKLDPAVYGDPTSLITWEIVEREVKGNMTVDEALKNKRLFVLDYHDLLLPYVNKVRELNNTTLYASRTLFFLSDDSTLRPVAIELTCPPNINKPQWKQVFTPGYDATSCWLWNLAKTHAISHDAGYHQLISHWLRTHACTEPYIIAANRQLSAMHPIYRLLHPHFRYTMEINARARQSLVNGGGIIETCFWPGKYALELSSAVYGKLWRFDQEGLPADLIKRGLAEEDKTAEHGVRLTIPDYPFANDGLILWDAIKEWVTDYVKHYYPDEELITSDEELQGWWSEVRNIGHGDKKDEPWWPVLKTQDDLIGVVTTIAWVTSGHHAAVNFGQYGYGGYFPNRPTTTRIRMPTEDPTDEALKEFYESPEKVLLKTYPSQKQATLVMVTLDLLSTHSPDEEYIGEQQEASWANEPVINAAFERFKGKLQYLEGVIDERNVNITLKNRAGAGVVKYELLKPTSEHGVTGMGVPYSISI",120,1,,
"soluble, catalytically active LOX2 used for reconstitution of the complex (enzyme, A. thaliana, UniProt P38418 57-896, looked up, lipoxygenase 2 (LOX2), A. thaliana) ANIEQEGNTVKEPIQNIKVKGYITAQEEFLEGITWSRGLDDIADIRGRSLLVELISAKTDQRITVEDYAQRVWAEAPDEKYECEFEMPEDFGPVGAIKIQNQYHRQLFLKGVELKLPGGSITFTCESWVAPKSVDPTKRIFFSDKSYLPSQTPEPLKKYRKEELETLQGKNREEVGEFTKFERIYDYDVYNDVGDPDNDPELARPVIGGLTHPYPRRCKTGRKPCETDPSSEQRYGGEFYVPRDEEFSTAKGTSFTGKAVLAALPSIFPQIESVLLSPQEPFPHFKAIQNLFEEGIQLPKDAGLLPLLPRIIKALGEAQDDILQFDAPVLINRDRFSWLRDDEFARQTLAGLNPYSIQLVEEWPLISKLDPAVYGDPTSLITWEIVEREVKGNMTVDEALKNKRLFVLDYHDLLLPYVNKVRELNNTTLYASRTLFFLSDDSTLRPVAIELTCPPNINKPQWKQVFTPGYDATSCWLWNLAKTHAISHDAGYHQLISHWLRTHACTEPYIIAANRQLSAMHPIYRLLHPHFRYTMEINARARQSLVNGGGIIETCFWPGKYALELSSAVYGKLWRFDQEGLPADLIKRGLAEEDKTAEHGVRLTIPDYPFANDGLILWDAIKEWVTDYVKHYYPDEELITSDEELQGWWSEVRNIGHGDKKDEPWWPVLKTQDDLIGVVTTIAWVTSGHHAAVNFGQYGYGGYFPNRPTTTRIRMPTEDPTDEALKEFYESPEKVLLKTYPSQKQATLVMVTLDLLSTHSPDEEYIGEQQEASWANEPVINAAFERFKGKLQYLEGVIDERNVNITLKNRAGAGVVKYELLKPTSEHGVTGMGVPYSISI",,,1,
